This assay concerns the target T1, PN7740, amino acids 27-321 (prey of Example 34) (Saccharomyces cerevisiae; human, UniProt P04386 768-881).
T1 construct: also called novel protein PN7740
T1 sequence: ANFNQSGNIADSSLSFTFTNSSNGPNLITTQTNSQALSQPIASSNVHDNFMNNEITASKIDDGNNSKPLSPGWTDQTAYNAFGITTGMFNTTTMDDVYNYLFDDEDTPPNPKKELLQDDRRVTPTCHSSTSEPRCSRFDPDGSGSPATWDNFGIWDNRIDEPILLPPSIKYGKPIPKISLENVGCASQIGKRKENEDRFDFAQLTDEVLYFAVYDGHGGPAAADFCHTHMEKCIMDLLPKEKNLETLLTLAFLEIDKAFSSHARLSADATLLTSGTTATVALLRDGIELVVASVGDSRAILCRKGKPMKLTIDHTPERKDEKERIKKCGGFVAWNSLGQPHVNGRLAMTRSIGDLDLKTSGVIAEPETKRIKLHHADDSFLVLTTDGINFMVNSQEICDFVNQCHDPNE
As to the kind of experiment: yeast two-hybrid search.

Description: The resulting diploid yeast cells expressing proteins interacting with the bait protein were selected for the ability to synthesize tryptophan, leucine, histidine, and adenine. DNA was prepared from each clone, transformed by electroporation into E. coli strain KC8 (Clontech KC8 electrocompetent cells, Catalog No. C2023- 1), and the cells were selected on ampicillin-containing plates in the absence of either tryptophane (selection for the bait plasmid) or leucine (selection for the library plasmid). DNA for both plasmids was prepared and sequenced by the dideoxynucleotide chain termination method. […] Clones that gave a positive signal in the p-galactosidase assay were considered false-positives and discarded. Plasmids for the remaining clones were transformed into yeast cells together with the original bait plasmid. Clones that gave a positive signal in the p-galactosidase assay were considered true positives.

B1: PSD95, amino acids 149-255 (bait of Example 34) (other, UniProt P04386 1-147, looked up)
chain: MKLLSSIEQACDICRLKKLKCSKEKPKCAKCLKNNWECRYSPKTKRSPLTRAHLTEVESRLERLEQLFLLIFPREDLDMILKMDSLQDIKALLTGLFVQDNVNKDAVTDRLASVETDMPLTLRQHRISATSSSEESSNKGQRQLTVSMRRKPPAEKVMEIKLIKGPKGLGFSIAGGVGNQHIPGDNSIYVTKIIEGGAAHKDGRLQIGDKILAVNSVGLEDVMHEDAVAALKNTYDVVYLKVAKPSNAYLSDSY
notes: also called DLG4; SAP-90
With B1, the binding result is on record as “binds”.

The record behind these values is patent US20020106676A1 (MYRIAD GENETICS, published 2002).
